# Experimental data taken from patent publication US20150203577A1 (Chugai, published 2015).
# Residue numbers refer to the chain shown, from its start. Names may count otherwise.
# T1: mouse FcγRII extracellular domain with C-terminal His tag (mouse, UniProt P08101 30-210)
# T1 construct: Made on the basis of NCBI NP-034317.1; also called mFcγRII; mFcgRII
# T1 sequence: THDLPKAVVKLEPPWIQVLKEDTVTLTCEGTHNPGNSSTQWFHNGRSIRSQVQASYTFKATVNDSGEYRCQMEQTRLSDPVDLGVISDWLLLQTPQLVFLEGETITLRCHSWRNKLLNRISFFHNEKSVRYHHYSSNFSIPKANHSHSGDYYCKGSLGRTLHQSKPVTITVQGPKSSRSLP
# T2: mouse FcγRIII extracellular domain with C-terminal His tag (mouse, UniProt P08508 31-215)
# T2 construct: Made on the basis of NCBI NP-034318.2; also called mFcγRIII; mFcgRIII
# T2 chain: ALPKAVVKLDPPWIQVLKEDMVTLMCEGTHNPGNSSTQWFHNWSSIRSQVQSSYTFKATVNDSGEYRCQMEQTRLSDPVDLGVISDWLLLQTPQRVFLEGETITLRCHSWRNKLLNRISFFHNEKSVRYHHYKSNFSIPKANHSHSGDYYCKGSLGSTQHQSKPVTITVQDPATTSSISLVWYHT
# B1: H237-MB322/MRAL-k0 (antibody, mouse IgG1, kappa)
# heavy: QVQLQESGPGLVKPSETLSLTCAVSGHSISHDHAWSWVRQPPGEGLEWIGFISYSGITNYNPSLQGRVTISRDNSKNTLYLQMNSLRAEDTAVYYCARSLARTTAMDYWGEGTLVTVSSAKTTPPSVYPLAPGSAAQTNSMVTLGCLVKGYFPEPVTVTWNSGSLSSGVHTFPAVLQSDLYTLSSSVTVPSSTWPSETVTCNVAHPASSTKVDKKIVPRDCGCKPCICEDEEVEDVFIFPPKPKDVLTITLTPKVTCVVVDISKDDPEVQFSWFVDDVEVHTAQTQPREEQFNSTFRSVSELPIMHQDWLNGKEFKCRVNSAAFPAPIEKTISKTKGRPKAPQVYTIPPPKEQMAKDKVSLTCMITDFFPEDITVEWQWNGQPAENYKNTQPIMDTDGSYFVYSKLNVQKSNWEAGNTFTCSVLHEGLHNHHTEKSLSHSPGK
# light: not shown
# notes: copies: 2 + 2
# B2: H237-MB367/MRAL-k0 (antibody, mouse IgG1, kappa)
# heavy: B1 heavy with D230A, E231N
# light: not shown
# notes: mIgG1 with T230E/V231A/P232N/S238E/S239D (EU); copies: 2 + 2
# B3: H237-MB358/MRAL-k0 (antibody, mouse IgG1, kappa)
# heavy: B1 heavy with D230A, E231A
# light: not shown
# notes: copies: 2 + 2
# B4: H237-MB395/MRAL-k0 (antibody, mouse IgG1, kappa)
# heavy: B1 heavy with D230T, E231N
# light: not shown
# notes: copies: 2 + 2
# B5: H237-MB337/MRAL-k0 (antibody, mouse IgG1, kappa)
# heavy: B1 heavy with D230A, E231P
# light: not shown
# notes: copies: 2 + 2
# B6: H237-MB380/MRAL-k0 (antibody, mouse IgG1, kappa)
# heavy: B1 heavy with E231A
# light: not shown
# notes: copies: 2 + 2
# B7: H237-MB339/MRAL-k0 (antibody, mouse IgG1, kappa)
# heavy: B1 heavy with D230V, E231W
# light: not shown
# notes: copies: 2 + 2
# B8: H237-MB393/MRAL-k0 (antibody, mouse IgG1, kappa)
# heavy: B1 heavy with D230T, E231P
# light: not shown
# notes: copies: 2 + 2
# B9: H237-MB381/MRAL-k0 (antibody, mouse IgG1, kappa)
# heavy: B1 heavy with E231N
# light: not shown
# notes: copies: 2 + 2
# B10: H237-MB399/MRAL-k0 (antibody, mouse IgG1, kappa)
# heavy: B1 heavy with D230W, E231A
# light: not shown
# notes: copies: 2 + 2
# B11: H237-MB386/MRAL-k0 (antibody, mouse IgG1, kappa)
# heavy: B1 heavy with D230N, E231W
# light: not shown
# notes: copies: 2 + 2
# B12: H237-MB402/MRAL-k0 (antibody, mouse IgG1, kappa)
# heavy: B1 heavy with D230W, E231Y
# light: not shown
# notes: copies: 2 + 2
# B13: H237-MB383/MRAL-k0 (antibody, mouse IgG1, kappa)
# heavy: B1 heavy with D230N, E231P
# light: not shown
# notes: copies: 2 + 2
# B14: H237-MB340/MRAL-k0 (antibody, mouse IgG1, kappa)
# heavy: B1 heavy with D230A, E231W
# light: not shown
# notes: copies: 2 + 2
# B15: H237-MB385/MRAL-k0 (antibody, mouse IgG1, kappa)
# heavy: B1 heavy with D230N, E231N
# light: not shown
# notes: copies: 2 + 2
# B16: H237-MB396/MRAL-k0 (antibody, mouse IgG1, kappa)
# heavy: B1 heavy with D230T, E231W
# light: not shown
# notes: copies: 2 + 2
# B17: H237-MB388/MRAL-k0 (antibody, mouse IgG1, kappa)
# heavy: B1 heavy with D230P, E231P
# light: not shown
# notes: copies: 2 + 2
# B18: H237-MB400/MRAL-k0 (antibody, mouse IgG1, kappa)
# heavy: B1 heavy with D230W, E231N
# light: not shown
# notes: copies: 2 + 2
# B19: H237-MB401/MRAL-k0 (antibody, mouse IgG1, kappa)
# heavy: B1 heavy with D230W, E231W
# light: not shown
# notes: copies: 2 + 2
# B20: H237-MB392/MRAL-k0 (antibody, mouse IgG1, kappa)
# heavy: B1 heavy with D230P, E231Y
# light: not shown
# notes: copies: 2 + 2
# B21: H237-MB391/MRAL-k0 (antibody, mouse IgG1, kappa)
# heavy: B1 heavy with D230P, E231W
# light: not shown
# notes: copies: 2 + 2
# B22: H237-MB341/MRAL-k0 (antibody, mouse IgG1, kappa)
# heavy: B1 heavy with E231W
# light: not shown
# notes: copies: 2 + 2
# B23: H237-MB394/MRAL-k0 (antibody)
# heavy: B1 heavy with D230T, E231A
# light: not shown
# notes: Printed M8394, read as MB394; also called M8394; copies: 2 + 2
# B24: H237-MB338/MRAL-k0 (antibody, mouse IgG1, kappa)
# heavy: B1 heavy with E231P
# light: not shown
# notes: copies: 2 + 2
# B25: H237-MB384/MRAL-k0 (antibody, mouse IgG1, kappa)
# heavy: B1 heavy with D230N, E231A
# light: not shown
# notes: copies: 2 + 2
# B26: H237-MB378/MRAL-k0 (antibody, mouse IgG1, kappa)
# heavy: B1 heavy with D230V, E231N
# light: not shown
# notes: copies: 2 + 2
# B27: H237-MB398/MRAL-k0 (antibody, mouse IgG1, kappa)
# heavy: B1 heavy with D230W, E231P
# light: not shown
# notes: copies: 2 + 2
# B28: H237-MB377/MRAL-k0 (antibody, mouse IgG1, kappa)
# heavy: B1 heavy with D230V, E231A
# light: not shown
# notes: copies: 2 + 2
# Biological target: T1, mouse FcγRII extracellular domain with …
# Experiment: SPR Biacore T200; KD mFcγRIII / KD mFcγRII
# Protocol: (§1) Each altered antibody was analyzed for its interaction with each Fcγ receptor prepared above using Biacore T100 (GE Healthcare Japan Corp.), Biacore T200 (GE Healthcare Japan Corp.), Biacore A100, or Biacore 4000. The running buffer used was HBS-EP+ (GE Healthcare Japan Corp.). The assay temperature was set to 25° C. The sensor chips used were chips prepared by immobilizing Protein L (ACTIGEN or BioVision) onto Series S Sensor Chip CM5 (GE Healthcare Japan Corp.) or Series S Sensor Chip CM4 (GE Healthcare Japan Corp.) by the amine coupling method.
# (§2) In order to calculate the KD value of each altered antibody for FcγR, kinetic analysis was conducted according to the following method: first, the antibody of interest was captured onto any of these chips and allowed to interact with mFcγR diluted with a running buffer. For the obtained sensorgram, the assay results were globally fit into the 1:1 Langmuir binding model using Biacore Evaluation Software to calculate an association rate constant ka (L/mol/s) and a dissociation rate constant kd (1/s). From these values, the dissociation constant KD (mol/L) was calculated.
relative I/A (mFcγRII selectivity) (mIgG1 = 1),I/A (mFcγRII selectivity),Binder
7.3,–,B1
25.6,–,B2
27.7,–,B3
18.7,–,B4
16,–,B5
18.7,–,B6
17,–,B7
16,–,B8
16.5,–,B9
18.2,–,B10
18.6,24.9,B11
17.4,23.3,B12
19.6,–,B13
22.4,30,B14
19.2,–,B15
16.6,22.3,B16
25.9,34.6,B17
15,–,B18
23.7,–,B19
17.8,23.9,B20
25.9,34.7,B21
23.4,31.4,B22
17.8,–,B23
16.5,–,B24
19.8,–,B25
18.6,–,B26
13,–,B27
21.3,–,B28

# Biological target: T1, mouse FcγRII extracellular domain with …
# Experiment: SPR Biacore T200
# Protocol: as §1, §2
relative mFcγRII-binding activity (mIgG1 = 1),Kd [nM],Binder
9.2,–,B1
159,–,B2
114,–,B3
154,–,B4
73.4,–,B5
78.1,–,B6
197,–,B7
89.9,–,B8
93.5,–,B9
71.8,–,B10
268,0.784,B11
208,1.01,B12
106,–,B13
221,0.952,B14
152,–,B15
297,0.707,B16
277,0.757,B17
81.7,–,B18
162,–,B19
257,0.817,B20
281,0.747,B21
268,0.782,B22
134,–,B23
42.2,–,B24
125,–,B25
172,–,B26
45.8,–,B27
127,–,B28

# Biological target: T2, mouse FcγRIII extracellular domain with …
# Experiment: SPR Biacore T200
# Protocol: as §1, §2
relative mFcγRIII-binding activity (mIgG1 = 1),Kd [nM],Binder
1.3,–,B1
6.2,–,B2
4.1,–,B3
8.2,–,B4
4.6,–,B5
4.2,–,B6
11.6,–,B7
5.6,–,B8
5.7,–,B9
3.9,–,B10
14.5,19.5,B11
12,23.6,B12
5.4,–,B13
9.9,28.6,B14
7.9,–,B15
17.9,15.8,B16
10.8,26.2,B17
5.5,–,B18
6.9,–,B19
14.5,19.5,B20
10.9,25.9,B21
11.5,24.6,B22
7.5,–,B23
2.6,–,B24
6.3,–,B25
9.3,–,B26
3.5,–,B27
6,–,B28
